# Patent US5472841
# Target: T1, Human neutrophil elastase (Homo sapiens) (UniProt P08246)
# T1 sequence: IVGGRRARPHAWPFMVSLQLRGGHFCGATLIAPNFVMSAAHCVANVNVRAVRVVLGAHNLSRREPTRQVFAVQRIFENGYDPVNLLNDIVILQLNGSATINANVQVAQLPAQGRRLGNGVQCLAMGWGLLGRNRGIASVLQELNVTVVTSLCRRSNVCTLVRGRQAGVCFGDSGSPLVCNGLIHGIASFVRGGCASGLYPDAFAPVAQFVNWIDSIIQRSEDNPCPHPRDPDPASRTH
# Assay: filter
# Settings: apparent Kd
sequence,measurement,value
CCCCTGCAGGTGATTTTGCTCAAGTNNNNNNNNNNNNNNNNNNNNNNNNNNNNNNNNNNNNNNNNAGTATCGCTAATCAGGCGGATC [random ssDNA pool],Kd,250 nM
